By Kd is commonly meant the constant that tells how readily two partners part at equilibrium. By IC50 is commonly meant the point on the concentration scale where inhibition reaches its midpoint. A lower IC50 goes with higher potency.

Drawing on the Immune Epitope Database (IEDB), this text covers Kd and IC50 for 15 sequences.

One experiment has as its target HLA-B*54:01. The experiment can be described thus: IEDB peptide-MHC binding, purified MHC/competitive/radioactivity; filed as Kd, often an IC50 or EC50 that approximates it; ≥ and ≤ were set here for values at or beyond the usual limits of such assays.
The next experiment concerns the target HLA-B*35:01. The description is as above.
The next experiment addresses HLA-B*53:01. The experiment is described as above.
A further experiment concerns the target HLA-B*07:02. Described as above.
In experiment [1] the target is HLA-B*51:01. Described as above.
The next experiment concerns the target HLA-A*24:02. The experiment in a line: IEDB peptide-MHC binding, purified MHC/competitive/fluorescence; ≥ and ≤ were set here for values at or beyond the usual limits of such assays.
In another experiment the target is HLA-A*11:01. Described as above.
Experiment [2] addresses HLA-B*51:01. The experiment in a line: IEDB peptide-MHC binding, purified MHC/competitive/fluorescence; filed as Kd, often an IC50 or EC50 that approximates it; ≥ and ≤ were set here for values at or beyond the usual limits of such assays. The conditions noted are these: source organism: Mycobacterium tuberculosis CDC1551.
For the next experiment, the target named is HLA-B*40:02. The experiment in a line: IEDB peptide-MHC binding, purified MHC/competitive/radioactivity; filed as Kd, often an IC50 or EC50 that approximates it; ≥ and ≤ were set here for values at or beyond the usual limits of such assays.
The target of another experiment is HLA-B*44:02. Described as above.
A further experiment concerns the target HLA-B*18:01. The description is as above.
For a further experiment, the target named is HLA-B*40:01. Described as above.
In the next experiment the target is HLA-B*45:01. Described as above.
Another experiment concerns the target HLA-B*44:03. The experiment is described as above.
A further experiment has as its target HLA-A*02:01. The experiment in a line: IEDB peptide-MHC binding, purified MHC/competitive/fluorescence; ≥ and ≤ were set here for values at or beyond the usual limits of such assays. The conditions noted are these: source organism: Zaire ebolavirus.
The mark [3] stands for this setting: source organism: Vaccinia virus WR.
The mark [4] stands for this setting: source organism: Vaccinia virus.
Where [5] appears, read: source organism: Mammarenavirus juninense.
Where [6] appears, read: source organism: SARS coronavirus Tor2.
Where [7] appears, read: source organism: Zaire ebolavirus.
The mark [8] stands for this setting: source organism: Mammarenavirus guanaritoense.
The mark [9] stands for this setting: source organism: Triticum aestivum.
Setting [10] is: source organism: Mammarenavirus machupoense.
Where [11] appears, read: source organism: Lymphocytic choriomeningitis virus (strain Armstrong).

For the sequence APIKEFKAKI, the Kd with HLA-B*54:01 (setting [3]) is 11.2 µM; with HLA-B*35:01 (setting [3]) it was at least 41.4 µM; with HLA-B*53:01 (setting [3]), 12 µM; with HLA-B*07:02 (setting [3]), 0.0202 µM; with HLA-B*51:01 [1] (setting [3]), at least 22.4 µM.
For GGKVFAPKQ, the IC50 in the experiment with HLA-A*24:02 (setting [4]) was at least 2250 µM; with HLA-A*11:01 (setting [4]), at least 244 µM.
As to HPDMDSMMI, the Kd in the experiment with HLA-B*54:01 (setting [5]) was at least 68.4 µM; with HLA-B*35:01 (setting [5]), 1.49 µM; with HLA-B*53:01 (setting [5]) it was 0.167 µM; in the experiment with HLA-B*07:02 (setting [5]) it was 0.806 µM; in the experiment with HLA-B*51:01 [1] (setting [5]), 3.31 µM.
Consider HPLADNKFAL, for which the Kd in the experiment with HLA-B*54:01 (setting [6]) was 7.11 µM; with HLA-B*35:01 (setting [6]) it was 0.185 µM; in the experiment with HLA-B*53:01 (setting [6]), 0.783 µM; with HLA-B*07:02 (setting [6]), 0.0971 µM; with HLA-B*51:01 [1] (setting [6]), 0.991 µM.
Consider LDGQQFYWP, for which the IC50 with HLA-A*24:02 (setting [7]) was at least 210 µM; in the experiment with HLA-A*11:01 (setting [7]), at least 150 µM.
In the case of LPFTLGIMAI, the Kd amounted to 0.15 µM with HLA-B*54:01 (setting [6]); 4.98 µM in the experiment with HLA-B*35:01 (setting [6]); 0.487 µM with HLA-B*53:01 (setting [6]); 0.743 µM with HLA-B*07:02 (setting [6]); 1.21 µM in the experiment with HLA-B*51:01 [1] (setting [6]).
Take LPHLCLDYKV: the Kd came to 0.00499 µM in the experiment with HLA-B*54:01 (setting [3]); 10.1 µM with HLA-B*35:01 (setting [3]); 1.08 µM with HLA-B*53:01 (setting [3]); 8.45 µM with HLA-B*07:02 (setting [3]); 0.36 µM in the experiment with HLA-B*51:01 [1] (setting [3]).
As for LPIFSEFVL, the Kd in the experiment with HLA-B*54:01 (setting [8]) was 0.491 µM; with HLA-B*35:01 (setting [8]) it was 0.00859 µM; in the experiment with HLA-B*53:01 (setting [8]) it was 0.0558 µM; with HLA-B*07:02 (setting [8]), 0.217 µM; with HLA-B*51:01 [1] (setting [8]), 18.5 µM.
As for LPPGSDEHI, the equilibrium dissociation constant (Kd) with HLA-B*51:01 [2] was at least 20 µM.
Turning to LPYPQPQPF, the Kd with HLA-B*54:01 (setting [9]) stood at 0.742 µM; with HLA-B*35:01 (setting [9]), 0.00253 µM; in the experiment with HLA-B*53:01 (setting [9]), 0.0161 µM; with HLA-B*07:02 (setting [9]) it was 0.0693 µM; with HLA-B*51:01 [1] (setting [9]), 0.00285 µM.
Turning to MPALTIACM, the Kd in the experiment with HLA-B*54:01 (setting [10]) came out at 0.836 µM; with HLA-B*35:01 (setting [10]), 0.00523 µM; in the experiment with HLA-B*53:01 (setting [10]), 0.0257 µM; with HLA-B*07:02 (setting [10]) it was 0.142 µM; in the experiment with HLA-B*51:01 [1] (setting [10]), 3.7 µM.
As to NDLQFGFGW, the Kd was 10.3 µM with HLA-B*40:02 (setting [11]); 0.295 µM with HLA-B*44:02 (setting [11]); 1.8 µM in the experiment with HLA-B*18:01 (setting [11]); at least 37.8 µM with HLA-B*40:01 (setting [11]); at least 77.7 µM with HLA-B*45:01 (setting [11]); 0.038 µM with HLA-B*44:03 (setting [11]).
Take NDNFLMSNV: the Kd in the experiment with HLA-B*40:02 (setting [10]) was 2.99 µM; with HLA-B*44:02 (setting [10]) it was 13.1 µM; with HLA-B*18:01 (setting [10]) it was at least 43.6 µM; with HLA-B*40:01 (setting [10]), at least 27.6 µM; in the experiment with HLA-B*45:01 (setting [10]), at least 10 µM; with HLA-B*44:03 (setting [10]), 19.6 µM.
As for NELSLALGL, the Kd with HLA-B*40:02 (setting [6]) amounted to 0.154 µM; with HLA-B*44:02 (setting [6]), 0.409 µM; in the experiment with HLA-B*18:01 (setting [6]) it was 0.0909 µM; with HLA-B*40:01 (setting [6]) it was 0.277 µM; with HLA-B*45:01 (setting [6]), 5.85 µM; with HLA-B*44:03 (setting [6]), 0.0285 µM.
Take NVPGPHRTI: the IC50 with HLA-A*24:02 (setting [7]) worked out at 2.2 µM; with HLA-A*11:01 (setting [7]), 54.4 µM; in the experiment with HLA-A*02:01, 16 µM.
